In paper PMC7067772, “Digenic inheritance of mutations in EPHA2 and SLC26A4 in Pendred syndrome” (Nature Communications, 2020):
Values belong to the molecule of their own block, whether it stands above or below them.

Key:
[1] = target: V5-EphA2 (pcDNA3.2-V5-EphA2) (UniProt P29317); experiment: co-immunoprecipitation with densitometric quantification; settings: n = 3; parent: est. 1.0; read off a plot
[2] = target: ephrin-A4 (Homo sapiens) (UniProt P52798); settings: cited from earlier work
[3] = target: ephrin-B2 (Homo sapiens) (UniProt P52799); settings: cited from earlier work
[4] = target: ephrin-A5 (Homo sapiens) (UniProt P52803); settings: cited from earlier work
[5] = target: T1, fc-fusion protein of the EphA2 extracellular domain (UniProt P29317 24-537); experiment: ELISA; plates coated with ephrin-A5 Fc or ephrin-B2 Fc (3 μg/ml, 50 mM carbonate buffer pH 9.5, overnight at 4 °C); diluted EphA2 Fc analyte 1 h at room temperature; detection with biotinylated 1F7 mAb and UltraStreptavidin-HRP, OD492 nm (the results say that the EphA2 Fc was immobilised); settings: both partners purified
T1 construct: EphA2 extracellular domain; Detected in the ELISA with biotinylated 1F7 mAb; also called EphA2 Fc
T1 sequence (P29317 24-537): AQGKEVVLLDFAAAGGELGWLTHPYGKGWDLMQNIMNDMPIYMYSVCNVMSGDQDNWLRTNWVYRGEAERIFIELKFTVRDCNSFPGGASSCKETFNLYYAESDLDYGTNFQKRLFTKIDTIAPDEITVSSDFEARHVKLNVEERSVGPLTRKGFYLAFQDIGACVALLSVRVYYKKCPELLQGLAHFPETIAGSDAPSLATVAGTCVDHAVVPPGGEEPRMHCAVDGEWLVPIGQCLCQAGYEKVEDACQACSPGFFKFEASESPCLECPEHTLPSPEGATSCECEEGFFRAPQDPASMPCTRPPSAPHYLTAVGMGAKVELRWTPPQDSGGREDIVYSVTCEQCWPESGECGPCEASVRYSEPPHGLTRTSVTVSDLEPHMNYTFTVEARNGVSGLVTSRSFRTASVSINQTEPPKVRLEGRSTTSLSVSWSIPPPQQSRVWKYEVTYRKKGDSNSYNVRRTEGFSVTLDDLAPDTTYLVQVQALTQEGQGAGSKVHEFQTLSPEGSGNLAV

ephrin-A4 (Homo sapiens), sequence (P52798 26-170): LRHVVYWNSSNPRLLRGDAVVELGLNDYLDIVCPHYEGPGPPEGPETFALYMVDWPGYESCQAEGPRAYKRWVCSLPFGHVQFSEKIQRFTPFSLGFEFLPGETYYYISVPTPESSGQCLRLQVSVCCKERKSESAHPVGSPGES
V5-EphA2 (pcDNA3.2-V5-EphA2), sequence (P29317 24-976): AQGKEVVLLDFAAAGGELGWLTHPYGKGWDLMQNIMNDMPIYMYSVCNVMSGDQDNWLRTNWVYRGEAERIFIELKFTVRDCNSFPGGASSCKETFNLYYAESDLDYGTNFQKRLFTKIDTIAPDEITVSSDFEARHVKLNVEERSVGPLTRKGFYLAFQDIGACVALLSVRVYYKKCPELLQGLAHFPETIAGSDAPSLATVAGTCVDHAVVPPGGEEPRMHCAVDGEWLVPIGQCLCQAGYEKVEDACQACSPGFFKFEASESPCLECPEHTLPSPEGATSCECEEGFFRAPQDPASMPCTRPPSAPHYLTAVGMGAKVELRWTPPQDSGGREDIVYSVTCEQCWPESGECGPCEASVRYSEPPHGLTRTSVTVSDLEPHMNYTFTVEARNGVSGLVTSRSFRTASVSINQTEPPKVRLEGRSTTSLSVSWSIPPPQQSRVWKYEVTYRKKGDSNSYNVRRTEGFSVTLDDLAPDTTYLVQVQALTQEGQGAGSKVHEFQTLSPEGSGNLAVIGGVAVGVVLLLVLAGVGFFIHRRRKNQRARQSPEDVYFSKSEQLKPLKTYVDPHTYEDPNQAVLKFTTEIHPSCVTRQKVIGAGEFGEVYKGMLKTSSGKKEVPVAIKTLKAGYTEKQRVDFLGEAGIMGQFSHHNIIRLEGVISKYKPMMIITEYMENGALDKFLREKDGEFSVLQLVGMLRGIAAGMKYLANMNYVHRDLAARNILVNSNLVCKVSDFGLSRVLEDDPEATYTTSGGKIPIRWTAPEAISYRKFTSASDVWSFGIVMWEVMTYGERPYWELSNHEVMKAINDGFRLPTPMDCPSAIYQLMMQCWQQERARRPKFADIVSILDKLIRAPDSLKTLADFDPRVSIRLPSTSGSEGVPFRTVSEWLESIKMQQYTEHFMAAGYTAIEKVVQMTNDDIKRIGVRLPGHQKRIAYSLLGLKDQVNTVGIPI

Molecule: myc-tagged pendrin (pCMV-Myc-pendrin) (from UniProt O43511) F355L
ratio to parent [1]: 0.98

Molecule: EphA4 (from UniProt P54764)
Kd [2]: 36 nM
Kd [3]: 10800 nM
Kd [4]: 360 nM

The remaining lines, values ahead:

Kd [5]: 2 nM
B1: ephrin-A5 Fc fusion protein (Fc fusion, UniProt P52803 21-203, looked up)
chain: QDPGSKAVADRYAVYWNSSNPRFQRGDYHIDVCINDYLDVFCPHYEDSVPEDKTERYVLYMVNFDGYSACDHTSKGFKRWECNRPHSPNGPLKFSEKFQLFTPFSLGFEFRPGREYFYISSAIPDNGRRSCLKLKVFVRPTNSCMKTIGVHDRVFDVNDKVENSLEPADDTVHESAEPSRGEN
notes: ephrin-A5

Kd [5]: 85 nM
B2: soluble ephrin-B2 extracellular domain-Fc fusion protein (Fc fusion, UniProt P52799 28-229, looked up)
chain: IVLEPIYWNSSNSKFLPGQGLVLYPQIGDKLDIICPKVDSKTVGQYEYYKVYMVDKDQADRCTIKKENTPLLNCAKPDQDIKFTIKFQEFSPNLWGLEFQKNKDYYIISTSNGSLEGLDNQEGGVCQTRAMKILMKVGQDASSAGSTRNKDPTRRPELEAGTNGRSSTTSPFVKPNPGSSTDGNSAGHSGNNILGSEVALFA
notes: ephrin-B2 extracellular domain; also called ephrin-B2-Fc; ephrin-B2 Fc chimera protein
